The results in this text go back to the Immune Epitope Database (IEDB).

The target of one assay is HLA-A*32:01. Briefly: IEDB peptide-MHC binding, purified MHC/competitive/radioactivity; filed as Kd, often an IC50 or EC50 that approximates it; ≥ and ≤ were set here for values at or beyond the usual limits of such assays.
A further assay concerns the target HLA-A*02:01. Briefly: IEDB peptide-MHC binding, purified MHC/competitive/fluorescence; filed as Kd, often an IC50 or EC50 that approximates it; ≥ and ≤ were set here for values at or beyond the usual limits of such assays.
Assay [1] has as its target HLA-A*01:01. The assay can be described thus: IEDB peptide-MHC binding, purified MHC/competitive/radioactivity; filed as Kd, often an IC50 or EC50 that approximates it; ≥ and ≤ were set here for values at or beyond the usual limits of such assays. The note with it: source organism: SARS coronavirus Tor2.
The next assay has as its target HLA-A*03:01. Described as above. To be noted: source organism: SARS coronavirus Tor2.
Another assay has as its target HLA-A*11:01. Described as above. To be noted: source organism: SARS coronavirus Tor2.
In the next assay the target is HLA-A*23:01. Described as above. To be noted: source organism: SARS coronavirus Tor2.
In another assay the target is HLA-A*24:02. Described as above. To be noted: source organism: SARS coronavirus Tor2.
The target in assay [2] is HLA-A*26:01. The assay is described as above.
In a further assay the target is HLA-A*29:02. The description is as above. The note with it: source organism: SARS coronavirus Tor2.
A further assay addresses HLA-A*30:02. The description is as above. The note with it: source organism: SARS coronavirus Tor2.
The target in another assay is HLA-A*31:01. The description is as above. To be noted: source organism: SARS coronavirus Tor2.
The next assay concerns the target HLA-A*33:01. The assay is described as above. The note with it: source organism: SARS coronavirus Tor2.
For another assay, the target named is HLA-A*68:01. The description is as above. The note with it: source organism: SARS coronavirus Tor2.
A further assay concerns the target HLA-B*07:02. The assay is described as above.
Assay [3] concerns the target HLA-A*01:01. Briefly: IEDB peptide-MHC binding, purified MHC/direct/fluorescence; filed as Kd, often an IC50 or EC50 that approximates it; ≥ and ≤ were set here for values at or beyond the usual limits of such assays. The note with it: source organism: Mycobacterium tuberculosis variant bovis BCG str. Pasteur 1173P2.
In assay [4] the target is HLA-A*26:01. The assay is described as above. The note with it: source organism: Mycobacterium tuberculosis.
Another assay addresses HLA-B*51:01. The assay can be described thus: IEDB peptide-MHC binding, purified MHC/competitive/radioactivity; filed as Kd, often an IC50 or EC50 that approximates it; ≥ and ≤ were set here for values at or beyond the usual limits of such assays.
The target of the next assay is HLA-B*35:01. The description is as above.
In another assay the target is HLA-B*53:01. The assay is described as above.
The mark [5] stands for this setting: source organism: Dengue virus 2 Jamaica/1409/1983.
[6] abbreviates: source organism: SARS coronavirus Tor2.
Setting [7] is: source organism: Dengue virus 1 Brazil/97-11/1997.
Where [8] appears, read: source organism: Dengue virus 3 Martinique/1243/1999.
[9] abbreviates: source organism: Dengue virus 4 Philippines/H241/1956.
Where [10] appears, read: source organism: Vaccinia virus WR.

Take AAAWYLWEVK: in the assay with HLA-A*32:01 (setting [5]), the dissociation constant Kd worked out at 2060 nM.
As for AIVGGLAEL, the equilibrium dissociation constant (Kd) with HLA-A*02:01 (source organism: Japanese encephalitis virus) turned out to be 12 nM.
ALSSDGDTV showed a Kd in the assay with HLA-A*02:01 (source organism: Vaccinia virus Tian Tan) of 9.6 nM.
For the sequence AMDEFIQRY, the Kd with HLA-A*01:01 [1] is 64.4 nM; with HLA-A*03:01 it was 1630 nM; in the assay with HLA-A*11:01, 3.23 µM; in the assay with HLA-A*23:01 it was ≥ 20.1 µM; in the assay with HLA-A*24:02, 7.9 µM; with HLA-A*26:01 [2] (setting [6]) it was ≥ 84.1 µM. In addition, the equilibrium dissociation constant (Kd) in the assay with HLA-A*29:02 is 896 nM; with HLA-A*30:02 it was 1390 nM; in the assay with HLA-A*31:01, ≥ 77.9 µM; with HLA-A*33:01 it was ≥ 77.7 µM; with HLA-A*68:01, ≥ 77.7 µM.
AVAANIVLTV showed a dissociation constant Kd with HLA-A*02:01 (source organism: Homo sapiens) of 207 nM.
As to DPRRCLKPV, in the assay with HLA-B*07:02 (setting [7]), the equilibrium dissociation constant (Kd) was 225 nM.
Consider DTRTQTWMSA, for which, in the assay with HLA-A*32:01 (setting [8]), the dissociation constant Kd was determined as 5740 nM.
As for DVAAMSGYY, the equilibrium dissociation constant (Kd) in the assay with HLA-A*01:01 [3] stood at 318 nM; in the assay with HLA-A*26:01 [4], 3 nM.
As for FAAGLLLRKL, the Kd with HLA-B*51:01 (setting [5]) came out at 11.6 µM.
As to FTILALFLAH, the equilibrium dissociation constant (Kd) with HLA-A*26:01 [2] (setting [8]) was ≥ 20.9 µM; with HLA-B*35:01 (setting [8]), ≥ 24900 nM.
Take GPVLTLWEGN: in the assay with HLA-A*32:01 (setting [9]), the Kd came to 1550 nM.
As to HPGFTVIAL, the Kd with HLA-B*07:02 (setting [7]) was determined as 3.14 nM; in the assay with HLA-B*35:01 (setting [7]), 1.54 nM; with HLA-B*53:01 (setting [7]) it was 29.4 nM.
IIFFIVLIL: the dissociation constant (Kd) in the assay with HLA-A*32:01 (setting [10]) is 12.2 nM.
With ILPVIFLSI, the dissociation constant (Kd) with HLA-A*32:01 (setting [10]) amounted to 4.49 nM.
Take IPNHGVTAT: in the assay with HLA-B*35:01 (setting [9]), the Kd is 2280 nM.
In the case of ITLFLILCY, the equilibrium dissociation constant (Kd) with HLA-A*32:01 (setting [10]) stood at 1800 nM.
On the same count and under the same terms, in the case of ITVYFRRTI it was 25.9 nM.
KLGFEEIKGL displayed a Kd in the assay with HLA-A*02:01 (source organism: Vaccinia virus Copenhagen) of 30.6 nM.
As to KLYTIVSTL, the Kd with HLA-A*32:01 (setting [10]) was 7.12 nM.
As to KQNMLHVII, the Kd with HLA-A*32:01 (setting [10]) was 2.12 nM.
On to LPDTIETLM, for which the equilibrium dissociation constant (Kd) with HLA-B*35:01 (setting [7]) came out at 818 nM; in the assay with HLA-B*51:01 (setting [7]) it was 19 µM; in the assay with HLA-B*53:01 (setting [7]), 428 nM.
On to LPPEKCDTL, for which the Kd with HLA-B*51:01 (setting [8]) was found to be 7.73 µM.
As to LTNEIYASI, the dissociation constant Kd in the assay with HLA-A*32:01 (setting [10]) stood at 12.9 nM.
Turning to MADVPLQWI, in the assay with HLA-B*51:01 (source organism: Dengue virus 3 Singapore/8120/1995), the dissociation constant (Kd) worked out at 2.27 µM.
Turning to MAVGMVSIL, the Kd in the assay with HLA-B*35:01 (setting [5]) turned out to be 10.3 nM.
For the sequence MFLARAIVF, the Kd with HLA-A*01:01 [1] was ≥ 78100 nM; with HLA-A*23:01 it was 19.4 µM; in the assay with HLA-A*24:02 it was ≥ 77.6 µM; with HLA-A*26:01 [2] (setting [6]), ≥ 34.1 µM; in the assay with HLA-A*29:02 it was 8470 nM; in the assay with HLA-A*30:02 it was 16600 nM.
With MPVMKRYSAP, the Kd was 9340 nM with HLA-B*07:02 (setting [9]), 502 nM in the assay with HLA-B*35:01 (setting [9]), ≥ 69.6 µM with HLA-B*51:01 (setting [9]) and 16000 nM with HLA-B*53:01 (setting [9]).
As to MPVTVASAA, the equilibrium dissociation constant (Kd) came out at 120 nM with HLA-B*07:02 (setting [7]) and 8.14 nM with HLA-B*35:01 (setting [7]).
Consider MTMILFLKL, for which, in the assay with HLA-A*32:01 (setting [10]), the Kd is 248 nM.
For MTNGKINSL, in the assay with HLA-A*32:01 (setting [10]), the Kd was 22.3 nM.
For QPHQLWTTL, the Kd in the assay with HLA-B*07:02 (setting [7]) was determined as 3.43 nM.
As to RFASALTAL, the Kd in the assay with HLA-B*07:02 (setting [5]) came to 324 nM.
As for RLSFKELLVY, the equilibrium dissociation constant (Kd) in the assay with HLA-A*01:01 [1] was 239 nM; with HLA-A*23:01, 14.7 µM; with HLA-A*24:02, 15.7 µM; with HLA-A*26:01 [2] (setting [6]), 10.1 µM; with HLA-A*29:02 it was 86.2 nM; with HLA-A*30:02, 226 nM.
On to RQMATTTNPLI, for which, in the assay with HLA-A*02:01 (source organism: Influenza A virus (A/parakeet/Chiba/1/97(H9N2))), the Kd was 13 nM.
Take SASKSASVY: the Kd with HLA-A*01:01 [1] is ≥ 24700 nM; with HLA-A*23:01 it was ≥ 77.8 µM; with HLA-A*24:02 it was ≥ 77.6 µM; with HLA-A*26:01 [2] (setting [6]), ≥ 20.8 µM; with HLA-A*29:02 it was 4990 nM; with HLA-A*30:02, 385 nM.
